Data on one substance can be found in patent US10653613B2, “Compositions comprising lysozyme hydrolysate for use in keratin-containing tissue” (DSM IP ASSETS B.V., priority 2013, dated 2020).

For series [1] the following is noted: human, in vivo. As to the method:
(§1) Lysozyme is rich in Trp. […] A product data sheet is attached as FIG. 6. Study Procedures
(§2) Washout periods between treatments were at least three days. […] The study was composed of four visits.
(§3) They then ingested one of the experimental drinks.
(§4) Fluorescence-based detection is employed.
(§5) • For Trp and LNAA determination in the blood: Approx. […] After mixing, 2 μl was injected on the column. Statistical Considerations Descriptive Statistics

Series [2] in a line: Clinical trial: plasma Trp/LNAA ratio kinetics after a single drink. The class given is in vivo, humans. The procedure:
as §1, §2, §3, §4, §5
Plasma samples from each time point have been analysed for levels of Trp and LNAA, i.e. the sum of Val, Ile, Leu, Tyr, and Phe. The resulting Trp/LNAA ratio was plotted against time post consumption of the intervention product.

Consider “intact lysozyme: A hen egg-derived protein rich in Trp; naturally occurring food protein that has not been altered”, for which, in series [1], the “Cysteine AUC (average)” value came out at 999.7, the “Cystine AUC (average)” value turned out to be 10726.7 and the “Glutathione AUC (average)” value is on record as 255.7. In series [2] (FIG. 2, comparison of the three treatments), the “Shape of the plasma Trp/LNAA ratio increase over time (in words)” value was “much slower increase”. Further, in series [2] (plasma, 0-240 min after single drink, healthy volunteers, baseline AUC subtracted), the “dAUC (baseline-corrected AUC of Trp/LNAA ratios), mean” value was 7.3.
